Here are results for three molecules from patent US20250347697A1, “Accurate Method for Generating a Phase Diagram of a Polymer” (MAX-PLANCK-GESELLSCHAFT ZUR FÖRDERUNG DER WISSENSCHAFTEN …, priority 2022, published 2025).

Format in all cases: physicochemical
The target in one series is T1, FUS (Homo sapiens, UniProt P35637).
T1 construct: made in house; host or cells: SF9-ESF insect cells (baculovirus) for the unlabelled FUS
T1 sequence (P35637 1-526): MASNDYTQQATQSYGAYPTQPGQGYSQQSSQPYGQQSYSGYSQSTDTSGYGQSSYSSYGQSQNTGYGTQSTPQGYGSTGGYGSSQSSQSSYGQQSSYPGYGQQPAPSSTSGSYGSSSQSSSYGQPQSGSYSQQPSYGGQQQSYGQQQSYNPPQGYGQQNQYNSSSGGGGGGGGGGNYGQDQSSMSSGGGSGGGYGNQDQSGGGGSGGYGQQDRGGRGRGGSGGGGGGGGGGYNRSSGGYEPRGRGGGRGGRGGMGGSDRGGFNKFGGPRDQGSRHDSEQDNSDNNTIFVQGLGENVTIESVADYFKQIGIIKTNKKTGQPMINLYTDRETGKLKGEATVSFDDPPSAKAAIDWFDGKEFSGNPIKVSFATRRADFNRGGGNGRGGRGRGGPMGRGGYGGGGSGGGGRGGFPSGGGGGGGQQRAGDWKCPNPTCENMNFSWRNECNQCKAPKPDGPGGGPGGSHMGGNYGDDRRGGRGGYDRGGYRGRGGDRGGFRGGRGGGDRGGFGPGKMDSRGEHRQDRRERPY
The experiment in a line: Effect of a small molecule drug on the phase diagram (binodal) of FUS, inPhase method. The conditions noted are these: compared to untreated control (DMSO); temperature phase diagram, FIG. 9. An excerpt:
• 1. Measure the protein concentration of the stock solutions. The stock solutions can be unlabelled, a mix of labelled and unlabelled or fully labelled protein. Solutions containing only unlabelled protein will be detected using brightfield (or phase-contrast, DIC, etc.) while the mixes that contain labelled protein can be also detected with fluorescence means. • 2. Make a titration series of the protein solution. • 3. Trigger phase separation of the protein samples. Phase separation can be triggered for example by a change in salt, pH or temperature. • 4. Immediately after triggering phase separation, encapsulate in a water-in-oil system (e.g. PicoSurf oil (Sphere Fluidics, UK)). • 5. Centrifugation after encapsulation is optional but helps in the segmentation of the condensates. This is because the centrifugation coarsens the condensates. • 6. Load the titration series into chambers for microscopy imaging. […] Now the ratio condensate over emulsion droplet volume which is the volume fraction can be determined. In case of fluorescently labelled proteins the determination of the condensate volume can be complemented by fluorescence microscopy. • 8. Perform the image and segmentation analysis and fit the measured volume-fractions to a linear regression over the protein concentrations. • 9. […]

The nature of series [1]: Partition factor derived from inPhase phase diagrams (water-in-oil emulsions). The following applies: range over the tested temperatures and salt (KCl) concentrations, FIG. 15a. The text has this:
Partition factor and comparison to fluorescence-based quantification. The partition factor (PF) is often used in condensate research to characterise the up-concentration of protein in the condensed phase. It can be defined by the ratio of the condensed-over dilute-phase concentration (PF=ccon/cdil). In the condensate field it is common to determine the partition factor by comparing fluorescence intensity inside the condensate against the intensity in the dilute phase. In contrast, our method allows us to directly determine the partition factor by using the presented phase diagrams (FIG. 13 and FIG. 14).
• 1. Measure the protein concentration of the stock solutions. The stock solutions can be unlabelled, a mix of labelled and unlabelled or fully labelled protein. Solutions containing only unlabelled protein will be detected using brightfield (or phase-contrast, DIC, etc.) while the mixes that contain labelled protein can be also detected with fluorescence means. • 2. […] Now the ratio condensate over emulsion droplet volume which is the volume fraction can be determined. In case of fluorescently labelled proteins the determination of the condensate volume can be complemented by fluorescence microscopy. • 8. Perform the image and segmentation analysis and fit the measured volume-fractions to a linear regression over the protein concentrations. • 9. […]

For the next series, the target named is T2, FUS-GFP (Homo sapiens, UniProt P35637).
T2 construct: made in house; the listing says 'purified from BAC construct')
The experiment in a line: Effect of RNA on protein phase separation (poly(A) RNA : FUS-GFP at fixed molar ratio). The following applies: titration of total protein concentration at constant poly(A) RNA to protein ratio, FIG. 16. The procedure: FUS-GFP containing samples were prepared as described in Example 1. Phase separation was triggered by simultaneously lowering the salt concentration of the sample and adding the Poly(A) RNA in an amount to maintain a fixed molar ratio of Poly(A):FUS-GFP. The volume fraction of the condensed phase was determined as described in Example 1 and cdil and ccon, were determined, wherein ccon represents an apparent concentration containing both Poly(A) (SEQ ID No: 3) and FUS-GFP concentration. The concentration of the single components of the sample can be resolved by the knowledge of the molar ratio of RNA to protein in the condensed phase (FIG. 16).

With `NC(=O)CCCCC1CCSS1` (stereo not drawn) [Lipoamide], the “effect on the phase behavior of FUS (condensed phase branch of the binodal)” value on FUS is reported as “reduced amount of conformational changes at higher temperatures”.

B1: PGL-3: protein component of P granules in the germline of C. elegans; spiked with 5% PGL-3::GFP (protein, UniProt G5EBV6 1-693, looked up)
Guanyl-specific ribonuclease …: MEANKRQIVEVDGIKSYFFPHLAHYLASNDELLVNNIAQANKLAAFVLGATDKRPSNEEIAEMILPNDSSAYVLAAGMDVCLILGDDFRPKFDSGAEKLSQLGQAHDLAPIIDDEKKISMLARKTKLKKSNDAKILQVLLKVLGAEEAEEKFVELSELSSALDLDFDVYVLAKLLGFASEELQEEIEIIRDNVTDAFEACKPLLKKLMIEGPKIDSVDPFTQLLLTPQEESIEKAVSHIVARFEEASAVEDDESLVLKSQLGYQLIFLVVRSLADGKRDASRTIQSLMPSSVRAEVFPGLQRSVFKSAVFLASHIIQVFLGSMKSFEDWAFVGLAEDLESTWRRRAIAELLKKFRISVLEQCFSQPIPLLPQSELNNETVIENVNNALQFALWITEFYGSESEKKSLNQLQFLSPKSKNLLVDSFKKFAQGLDSKDHVNRIIESLEKSSSSEPSATAKQTTTSNGPTTVSTAAQVVTVEKMPFSRQTIPCEGTDLANVLNSAKIIGESVTVAAHDVIPEKLNAEKNDNTPSTASPVQFSSDGWDSPTKSVALPPKISTLEEEQEEDTTITKVSPQPQERTGTAWGSGDATPVPLATPVNEYKVSGFGAAPVASGFGQFASSNGTSGRGSYGGGRGGDRGGRGAYGGDRGRGGSGDGSRGYRGGDRGGRGSYGEGSRGYQGGRAGFFGGSRGGS
modifications: spiked with 5% PGL-3::GFP
notes: protein component of P granules in the germline of C. elegans; spiked with 5% PGL-3::GFP
Consider B1, for which the “partition factor (PF=ccon/cdil)” value in series [1] was 10^1-10^3.

B2: poly(A) RNA: Poly(A) RNA (SEQ ID No: 3) added to FUS-GFP at a fixed molar ratio (nucleic acid)
chain: AAAAAAAAAAAAAAAAAAAAAAAAAAAAAAAAAAAAAAAAAAAAAAAAAAAAAAAAAAAAAAAAAAAAAAAAAAAAAAAAAAAAAAAAAAAAAAAAAAAAAAAAAAAAAAAAAAAAAAAAAAAAAAAAAAAAAAAAAAAAAAAAAAAAAAAAAAAAAAAAAAAAAAAAAAAAAAAAAAAAAAAAAAAAAAAAAAAAAAAAAAAAAAAAAAAAAAAAAAAAAAAAAAAAAAAAAAAAAAAAAAAAAAAAAA
modifications: misc_feature 1..250 Poly(A) RNA
Take B2: the “effect of increasing the RNA to protein ratio on cdil” value in the series with FUS-GFP is listed as “reduces cdil”.
